# Data: the Human Domainome abundance scans (Beltran et al. 2025)
# ± gives the uncertainty stated by the source.
# B1: TOX high mobility group box family member 3, residues 256 to 323; numbered along this chain, O15405 (parent)
# chain: QKPVSAYALFFRDTQAAIKGQNPNATFGEVSKIVASMWDSLGEEQKQVYKRKTEAAKKEYLKALAAYR
# Variants of: B1
# Experiment: abundance fitness (aPCA) (normalised: wild type 0, dead -1); higher = more abundant; growth selection in yeast, the domain comes from the species named
# Details: Homo sapiens
row,Variant,abundance fitness
1,QKPVSAYALFFRDTQAAIKGQNPNATFGCVSKIVASMWDSLGEEQKQVYKRKTEAAKKEYLKALAAYR [E29C],-0.643 ± 0.1
2,QKPVSAYALFFRDTQAAIKGMNPNATFGEVSKIVASMWDSLGEEQKQVYKRKTEAAKKEYLKALAAYR [Q21M],-0.199 ± 0.17
3,QKPVSAYALFFRDTQAAIKGDNPNATFGEVSKIVASMWDSLGEEQKQVYKRKTEAAKKEYLKALAAYR [Q21D],-0.126 ± 0.092
4,QKPVSAYALFFRDTQAAIKGVNPNATFGEVSKIVASMWDSLGEEQKQVYKRKTEAAKKEYLKALAAYR [Q21V],-0.321 ± 0.069
5,QKPVSAYALFFRDTQAAIKGQTPNATFGEVSKIVASMWDSLGEEQKQVYKRKTEAAKKEYLKALAAYR [N22T],-0.293 ± 0.084
6,QKPVSAYALFFRDTQAAIKGQPPNATFGEVSKIVASMWDSLGEEQKQVYKRKTEAAKKEYLKALAAYR [N22P],-0.824 ± 0.28
7,QKPVSAYALFFRDTQAAIKGQNPNATFGEISKIVASMWDSLGEEQKQVYKRKTEAAKKEYLKALAAYR [V30I],0.014 ± 0.11
8,QKPVSAYALFFRDTQAAIKGQNPNATFGEMSKIVASMWDSLGEEQKQVYKRKTEAAKKEYLKALAAYR [V30M],-0.162 ± 0.1
9,QKPVSAYALFFRDTQAAIKGQNPNATFGEYSKIVASMWDSLGEEQKQVYKRKTEAAKKEYLKALAAYR [V30Y],-0.811 ± 0.17
10,QKPVSAYALFFRDTQAAIKGQNPNATFGEVSKIVASMWDSLGEEQKQVYKRKTEAAKKEKLKALAAYR [Y60K],0.128 ± 0.073
11,QKPVSAHALFFRDTQAAIKGQNPNATFGEVSKIVASMWDSLGEEQKQVYKRKTEAAKKEYLKALAAYR [Y7H],-0.199 ± 0.14
12,QKPVSAYALFFRDTQAAIKGQNPNATFGEVSKIVASMWDSLGVEQKQVYKRKTEAAKKEYLKALAAYR [E43V],-0.12 ± 0.059
13,QKPVSAYALFFRDTQAAIKGQNPNATFGEVSKIVASMWDSLGFEQKQVYKRKTEAAKKEYLKALAAYR [E43F],-0.237 ± 0.079
14,QKPVSAYALFFRDTQAAIKGQNPNATFGEVSKIVASMWDSLGEEQKQVYKRKTEAAKKEYLKALAAYG [R68G],-0.01 ± 0.078
15,QKPVSAYALFFRDTQAAIKGQNPNATFGEVSKIVASMWDSLGEEQKQVYKRKTEAAKKEYLKYLAAYR [A63Y],-0.167 ± 0.068
16,QKPVSAYALFFRDTQAAIKGQNPNATFGEVSKIVASMWDSLGEEQKQVYKRKTEAAKKEYLKSLAAYR [A63S],0.132 ± 0.043
17,QKPVSAYALFFRDTQAAIKGQNPNATFGEVSKIVASMWDSAGEEQKQVYKRKTEAAKKEYLKALAAYR [L41A],-0.225 ± 0.068
18,QKPVSAYALFFRDTQAAIKGQNPNATFGEVSKIVASMWDSLGEEQKQVYKRKTEAFKKEYLKALAAYR [A56F],-0.548 ± 0.23
19,QKPVSAYALFFRDTQAAIKGQNPNATFGEVSKIVASMWDSLGEEQKQVYKRKTEAGKKEYLKALAAYR [A56G],-0.017 ± 0.057
20,QKPVSAYALFFRDTQAAIKGQNPNATFGEVSKIVASMWDSLGEEQKQVYKRKTEAASKEYLKALAAYR [K57S],-0.052 ± 0.05

row,Variant,abundance fitness
1,QKPVSAYALFFRDTQAAIKGQNPNATFGEVSKIVASMWDSLGERQKQVYKRKTEAAKKEYLKALAAYR [E44R],-0.359 ± 0.07
2,QKPVSAYADFFRDTQAAIKGQNPNATFGEVSKIVASMWDSLGEEQKQVYKRKTEAAKKEYLKALAAYR [L9D],-0.217 ± 0.29
3,LKPVSAYALFFRDTQAAIKGQNPNATFGEVSKIVASMWDSLGEEQKQVYKRKTEAAKKEYLKALAAYR [Q1L],-0.124 ± 0.072
4,GKPVSAYALFFRDTQAAIKGQNPNATFGEVSKIVASMWDSLGEEQKQVYKRKTEAAKKEYLKALAAYR [Q1G],0.107 ± 0.088
5,QKPVSAYALFFRDTQAAIKGQNPNATFGEVSKIVASMWDSLGEEQPQVYKRKTEAAKKEYLKALAAYR [K46P],-0.978 ± 0.19
6,QKPVSAYALFFRDTQAAIKGQNPNATFGEVSKIVASMWDSLGEEQSQVYKRKTEAAKKEYLKALAAYR [K46S],-0.811 ± 0.12
7,QKPVSAYALFFRDTQAAIKGQNPNATFGEVSKIVASMWDSLGEEQDQVYKRKTEAAKKEYLKALAAYR [K46D],-0.678 ± 0.13
8,QKPVSAYALFFRDTQAAIKGQNPNATFGEVSKIVASMWDSLGEEQKQVYKRKTEAAKDEYLKALAAYR [K58D],-0.01 ± 0.094
9,QKPVSAYALFFRDTQAAIKGQNPNATFGEVSKIVASMWDSLGEEQKQVYKRKTEAAKREYLKALAAYR [K58R],-0.043 ± 0.049
10,QKPVSAYALFFRDTQAAIKHQNPNATFGEVSKIVASMWDSLGEEQKQVYKRKTEAAKKEYLKALAAYR [G20H],0.013 ± 0.13
11,QKPVSAYALFFRDTQAAIKAQNPNATFGEVSKIVASMWDSLGEEQKQVYKRKTEAAKKEYLKALAAYR [G20A],0.129 ± 0.051
12,QKPVSAYALFFRDTQAAIKGQNPNATFGEVSKIVASMWDSLGEEQKQVYKRHTEAAKKEYLKALAAYR [K52H],-0.272 ± 0.066
13,QKPVSAYALFFRDTQAAIKGQNPNATFGEVSKIDASMWDSLGEEQKQVYKRKTEAAKKEYLKALAAYR [V34D],-0.541 ± 0.32
14,QKPVSAYALFFRDTQAAIKGQNPNATFGEVSKIVASMWDSLGEEQKQVYKRKTEAAKKEYLWALAAYR [K62W],-0.838 ± 0.11
15,QKPVSAYALFFRDTQAAIKGQNPNATFGEVSKIVASMWVSLGEEQKQVYKRKTEAAKKEYLKALAAYR [D39V],-0.262 ± 0.071
16,QKPVSAYALFFRDTQAAIKGQNPNATFGEVSKIVASMWNSLGEEQKQVYKRKTEAAKKEYLKALAAYR [D39N],-0.217 ± 0.21
17,QKPVSAYALFFRDTQAAIKGQNPNATFGEVSKIVASMWDSLGEEQKQVYKRKDEAAKKEYLKALAAYR [T53D],-0.022 ± 0.066
18,QKPVSAYALFFRDRQAAIKGQNPNATFGEVSKIVASMWDSLGEEQKQVYKRKTEAAKKEYLKALAAYR [T14R],-0.03 ± 0.065
19,QKPVSAYALFFRDWQAAIKGQNPNATFGEVSKIVASMWDSLGEEQKQVYKRKTEAAKKEYLKALAAYR [T14W],-0.364 ± 0.067
20,QKPVSAYALFFRDTQAALKGQNPNATFGEVSKIVASMWDSLGEEQKQVYKRKTEAAKKEYLKALAAYR [I18L],-0.396 ± 0.082
